# Assay results taken from patent publication US9555076B2, “Neuregulin based methods and compositions for treating cardiovascular diseases” (Zensun (Shanghai) Science & Technology, Co., Ltd., priority 2002, dated 2017).
# Several values for one entry are separate records, joined by “and”; a condition that tells them apart may be missing. Equal entries are not always repeated.
# B1: rhNRG-1 β: Recombinant human neuregulin fragment of 61 amino acid (SEQ ID NO:4), 3 disulfide bonds, expressed in E. coli (protein, listed as Homo sapiens)
# chain: SHLVKCAEKEKTFCVNGGECFMVKDLSNPSRYLCKCPNEFTGDRCQNYVMASFYKAEELYQ
# modifications: disulfide (positions not given here)
# Tests used:
# [1] = tested on: heart failure in rat caused by ligation of coronary artery; assay: Plasma renin-angiotensin-aldosterone radioimmunoassay; assay type: in vivo, SD rat
# Experimental: Carotid artery phlebotomy was carried out and plasma extracted according to the mandate of the reagent kit, frozen and stored at −20° C. Renin activity (PRA), angiotensin I (AI), angiotensin II (AII) and aldosterone (ALD) content were determined with immunoassay.
# [2] = tested on: toxic myocarditis caused by Adriamycin in rat; assay: Hemodynamics index, Adriamycin rat model; assay type: in vivo, SD rat; settings: rat, Adriamycin model
# Experimental: rhNRG-1 β was injected into the tail vein within 24 hours after the first injection of Adriamycin. During the experiment, animal survival was dynamically monitored, heart function indexes (maximal rate of pressure increase within left ventricle, […], maximal rate of pressure decrease within left ventricle, −dp/dt, systolic end pressure of left ventricle LVPmax, diastolic end pressure of left ventricle LVPmin) were monitored at the 5th week. Section was made from the heart tissue and pathological changes examined.
# Hemodynamics index such as carotid artery pressure, intra-ventricular pressure. dp/dt was measured with six lead physiology recorder. Major procedure: separate the right carotid artery, ligate its distal end and block its proximal end with arterial clamps, 20 G arteriovenous indwelling needle was inserted into the carotid artery, took out the medal stylet, loosened the artery clamps, push the plastic trocar further into appropriate depth, indwelled for 10 minutes, observed the wave style recorded by the physiology recorder, after it was stable, then recorded the carotid artery pressure and push the trocar further into the left ventricle, kept in place for 15 minutes, after it was stable, then recorded the dp/dt, −dp/dt, LVPmax and LVPmin.
# [3] = tested on: acute myocardial injury caused by viral (Coxsackie B3) infection in mice; assay: Myocardial pathologic score, mice infected with Coxsackie B3 virus; assay type: in vivo, BALB/C mice; parameters: key: 0-4 score: 0 = 0%, 1 = 25%, 2 = 50%, 3 = 75%, 4 = 100% lesion area
# Experimental: The survived mice were killed through dislocating the cervical spine, aseptic thoracotomy was performed and the heart extirpated, heart weight measured and put the myocardium into formaldehyde for fixation, embedded in paraffin, consecutive section made and pathologic examination performed, observed inflammatory cells infiltration of the myocardium, degeneration and necrosis. Based on the Principle of New Drug Evaluation Guideline, pathologic scoring criteria was defined as follow: • Score 0: lesion area accounting for 0%; • Score 1: lesion area accounting for 25%; • Score 2: lesion area accounting for 50%; • Score 3: lesion area accounting for 75%; • Score 4: lesion area accounting for 100%; • Scoring could be performed between score 1 and score 2 or between score 2 and score 3, e.g. when lesion area was 80% was scored as score 3.2, 7.3.3.4 Observation On Survival Of Mice
# [4] = dose not given (n = 6), iv qd × 10
# [5] = 10 μg/kg iv qd × 10 d, (I), listed as rhNRG-1β
# [6] = 20 μg/kg iv qd × 10 d, (I), listed as rhNRG-1β
# [7] = 40 μg/kg iv qd × 10 d, (I), listed as rhNRG-1β
molecule,measurement,setting,value
B1,AI,[1]; 5 μg/kg iv qd × 10,10.036 ng/mL
same,AII,[1]; 5 μg/kg iv qd × 10,807.304 pg/mL
same,ALD,[1]; 5 μg/kg iv qd × 10,1.472 ng/mL
same,PRA,[1]; 5 μg/kg iv qd × 10,4.032 ng/ml · h
same,AI,[1]; 10 μg/kg iv qd × 10,7.65 ± 1.40 ng/mL and 7.654 ng/mL
same,AII,[1]; 10 μg/kg iv qd × 10,468.58 ± 165.10 pg/mL and 468.583 pg/mL
same,ALD,[1]; 10 μg/kg iv qd × 10,1.26 ± 0.38 ng/mL and 1.264 ng/mL
same,PRA,[1]; 10 μg/kg iv qd × 10,1.075±1.50 ng/ml · h and 1.075 ng/ml · h
same,AI,[1]; 20 μg/kg iv qd × 10,7.40 ± 12.15 ng/mL and 7.400 ng/mL
same,AII,[1]; 20 μg/kg iv qd × 10,641.47 ± 283.86 pg/mL and 641.47 pg/mL
same,ALD,[1]; 20 μg/kg iv qd × 10,1.02 ± 0.27 ng/mL and 1.018 ng/mL
same,PRA,[1]; 20 μg/kg iv qd × 10,1.337±1.09 ng/ml · h and 1.337 ng/ml · h
same,AI,[1]; [4],10.655 ng/mL
same,AII,[1]; [4],1366.38 pg/mL
same,ALD,[1]; [4],1.738 ng/mL
same,PRA,[1]; [4],3.506 ng/ml · h
same,+dp/dt,"[2]; 10 μg/kg iv qd × 10 d, (I)",4875±636 mmHg/s and 4875 mmHg/s
same,LVPmax,"[2]; 10 μg/kg iv qd × 10 d, (I)",145±15.2 mmHg and 145 mmHg
same,LVPmin,"[2]; 10 μg/kg iv qd × 10 d, (I)",−24.5 mmHg
same,−dp/dt,"[2]; 10 μg/kg iv qd × 10 d, (I)",−3672±884 mmHg/s and −3672 mmHg/s
same,+dp/dt,[2]; [5],4875±636 mmHg/s
same,LVPmax,[2]; [5],145±15.2 mmHg
same,−dp/dt,[2]; [5],−3672±884 mmHg/s
same,+dp/dt,"[2]; 10 μg/kg iv qd × 10 d, (II)",4956 mmHg/s
same,LVPmax,"[2]; 10 μg/kg iv qd × 10 d, (II)",158.2 mmHg
same,LVPmin,"[2]; 10 μg/kg iv qd × 10 d, (II)",−22.4 mmHg
same,−dp/dt,"[2]; 10 μg/kg iv qd × 10 d, (II)",−3626 mmHg/s
same,+dp/dt,"[2]; 20 μg/kg iv qd × 10 d, (I)",6107±418 mmHg/s and 6107 mmHg/s
same,LVPmax,"[2]; 20 μg/kg iv qd × 10 d, (I)",156.1±17.7 mmHg and 156.1 mmHg
same,LVPmin,"[2]; 20 μg/kg iv qd × 10 d, (I)",−26.9 mmHg
same,−dp/dt,"[2]; 20 μg/kg iv qd × 10 d, (I)",−4323±457 mmHg/s and −4323 mmHg/s
same,+dp/dt,[2]; [6],6107±418 mmHg/s
same,LVPmax,[2]; [6],156.1±17.7 mmHg
same,−dp/dt,[2]; [6],−4323±457 mmHg/s
same,+dp/dt,"[2]; 20 μg/kg iv qd × 10 d, (II)",5833 mmHg/s
same,LVPmax,"[2]; 20 μg/kg iv qd × 10 d, (II)",157.7 mmHg
same,LVPmin,"[2]; 20 μg/kg iv qd × 10 d, (II)",−26.6 mmHg
same,−dp/dt,"[2]; 20 μg/kg iv qd × 10 d, (II)",−4345 mmHg/s
same,+dp/dt,"[2]; 40 μg/kg iv qd × 10 d, (I)",5954±689 mmHg/s and 5954 mmHg/s
same,LVPmax,"[2]; 40 μg/kg iv qd × 10 d, (I)",165.7±22.7 mmHg and 165.7 mmHg
same,LVPmin,"[2]; 40 μg/kg iv qd × 10 d, (I)",−27.4 mmHg
same,−dp/dt,"[2]; 40 μg/kg iv qd × 10 d, (I)",−4794±954 mmHg/s and −4794 mmHg/s
same,+dp/dt,[2]; [7],5954±689 mmHg/s
same,LVPmax,[2]; [7],165.7±22.7 mmHg
same,−dp/dt,[2]; [7],−4794±954 mmHg/s
same,+dp/dt,"[2]; 40 μg/kg iv qd × 10 d, (II)",6041 mmHg/s
same,LVPmax,"[2]; 40 μg/kg iv qd × 10 d, (II)",166.3 mmHg
same,LVPmin,"[2]; 40 μg/kg iv qd × 10 d, (II)",−22.2 mmHg
same,−dp/dt,"[2]; 40 μg/kg iv qd × 10 d, (II)",−4529 mmHg/s
same,Pathologic score Mean ± SD,"[3]; 7.5 μg/kg iv qd × 5, (I)",1.52 ± 0.74
same,Pathologic score Mean ± SD,"[3]; 7.5 μg/kg iv qd × 5, (II)",1.34 ± 1.16
same,Pathologic score Mean ± SD,"[3]; 15 μg/kg iv qd × 5, (I)",0.73±0.58
same,Pathologic score Mean ± SD,"[3]; 15 μg/kg iv qd × 5, (I), listed as rhNRG-1β",0.73 ± 0.58
same,Pathologic score Mean ± SD,"[3]; 15 μg/kg iv qd × 5, (II)",0.57 ± 0.58
same,Pathologic score Mean ± SD,"[3]; 30 μg/kg iv qd × 3, (I)",0.33±0.155
same,Pathologic score Mean ± SD,"[3]; 30 μg/kg iv qd × 3, (I), listed as rhNRG-1β",0.33 ± 0.155
same,Pathologic score Mean ± SD,"[3]; 30 μg/kg iv qd × 3, (II)",0.55 ± 0.476
same,Pathologic score Mean ± SD,"[3]; 30 μg/kg iv qd × 5, (I)",0.56±0.47
same,Pathologic score Mean ± SD,"[3]; 30 μg/kg iv qd × 5, (I), listed as rhNRG-1β",0.56 ± 0.47
same,Pathologic score Mean ± SD,"[3]; 30 μg/kg iv qd × 5, (II)",0.23 ± 0.26
same,Pathologic score Mean ± SD,"[3]; 30 μg/kg iv qd × 5, Example 5 (I)",0.11±0.14
same,Pathologic score Mean ± SD,"[3]; 30 μg/kg iv qd × 5, Example 5 (I), listed as rhNRG-1β",0.11 ± 0.140
same,Pathologic score Mean ± SD,"[3]; 30 μg/kg iv qd × 5, Example 5 (II)",0.17 ± 0.157
same,Pathologic score Mean ± SD,"[3]; 30 μg/kg iv qd × 7, (I)",0.13±0.13
same,Pathologic score Mean ± SD,"[3]; 30 μg/kg iv qd × 7, (I), listed as rhNRG-1β",0.13 ± 0.132
same,Pathologic score Mean ± SD,"[3]; 30 μg/kg iv qd × 7, (II)",0.19 ± 0.168
